Paper PMC3261159

Target: 14-3-3ζ (UniProt P63104)
Test: anti-HA co-IP, Myc Western blot
Conditions: reference: wild-type Myc-Stat3 (688–770); sites S727

binding against the reference: lost
Substance: Stat3 C-terminal region, 688-770 (from UniProt P40763) S727A
